Test in all cases: SPR, mAb captured, C2 mutant analyte;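 also: Anti-C2 mAbs captured on goat anti-human IgG Biacore CM5 chips, alanine or serine C2 surface mutants flowed over at 37 °C, double-referenced sensorgrams fitted to a 1:1 binding model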
Background: In SPR one partner is held on a chip, and binding of the other changes the refractive index at the surface.

Assay [1] addresses T1, human C2 S456A (human, UniProt P06681 21-752).
T1 sequence: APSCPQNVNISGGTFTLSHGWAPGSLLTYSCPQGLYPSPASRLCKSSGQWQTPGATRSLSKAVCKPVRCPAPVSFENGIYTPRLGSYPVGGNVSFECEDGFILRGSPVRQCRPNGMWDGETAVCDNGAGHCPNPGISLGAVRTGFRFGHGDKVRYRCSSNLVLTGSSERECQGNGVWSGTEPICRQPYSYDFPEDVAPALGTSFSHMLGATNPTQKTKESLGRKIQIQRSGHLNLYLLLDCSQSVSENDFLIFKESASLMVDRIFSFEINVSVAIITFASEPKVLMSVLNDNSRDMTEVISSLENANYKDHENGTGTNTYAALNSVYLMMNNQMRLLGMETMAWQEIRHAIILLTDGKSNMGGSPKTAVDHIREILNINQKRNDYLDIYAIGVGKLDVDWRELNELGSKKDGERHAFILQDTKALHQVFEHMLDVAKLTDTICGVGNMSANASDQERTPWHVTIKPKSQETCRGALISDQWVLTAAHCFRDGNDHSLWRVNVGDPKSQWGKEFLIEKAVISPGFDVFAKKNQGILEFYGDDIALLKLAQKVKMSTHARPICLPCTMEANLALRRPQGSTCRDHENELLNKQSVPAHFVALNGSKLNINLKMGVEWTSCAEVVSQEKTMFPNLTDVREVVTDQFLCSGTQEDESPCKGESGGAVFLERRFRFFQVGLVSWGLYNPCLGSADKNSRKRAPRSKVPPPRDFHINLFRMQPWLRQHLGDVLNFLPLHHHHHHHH

For assay [2], the target named is T2, human C2 K457A (human, UniProt P06681 21-752).
T2 sequence: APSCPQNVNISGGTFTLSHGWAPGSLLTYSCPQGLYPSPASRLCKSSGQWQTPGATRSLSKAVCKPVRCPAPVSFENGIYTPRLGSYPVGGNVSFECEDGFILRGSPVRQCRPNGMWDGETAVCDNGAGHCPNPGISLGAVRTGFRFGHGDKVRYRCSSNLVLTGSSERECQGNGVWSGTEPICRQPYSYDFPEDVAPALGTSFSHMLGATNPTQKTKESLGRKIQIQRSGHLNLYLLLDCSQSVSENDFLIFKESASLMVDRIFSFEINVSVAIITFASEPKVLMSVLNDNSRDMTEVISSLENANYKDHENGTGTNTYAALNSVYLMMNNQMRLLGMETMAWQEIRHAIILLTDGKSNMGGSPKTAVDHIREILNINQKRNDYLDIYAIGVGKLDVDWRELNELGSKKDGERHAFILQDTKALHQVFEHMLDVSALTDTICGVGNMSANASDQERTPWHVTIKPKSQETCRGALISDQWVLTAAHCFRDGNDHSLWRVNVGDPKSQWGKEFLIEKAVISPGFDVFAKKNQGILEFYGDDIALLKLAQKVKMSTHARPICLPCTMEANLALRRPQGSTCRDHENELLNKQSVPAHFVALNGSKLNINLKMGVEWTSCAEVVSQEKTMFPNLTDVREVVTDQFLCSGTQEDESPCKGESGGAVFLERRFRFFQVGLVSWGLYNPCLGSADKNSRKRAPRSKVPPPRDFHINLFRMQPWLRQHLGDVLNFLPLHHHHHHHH

In assay [3] the target is T3, human C2 A472S (human, UniProt P06681 21-752).
T3 sequence: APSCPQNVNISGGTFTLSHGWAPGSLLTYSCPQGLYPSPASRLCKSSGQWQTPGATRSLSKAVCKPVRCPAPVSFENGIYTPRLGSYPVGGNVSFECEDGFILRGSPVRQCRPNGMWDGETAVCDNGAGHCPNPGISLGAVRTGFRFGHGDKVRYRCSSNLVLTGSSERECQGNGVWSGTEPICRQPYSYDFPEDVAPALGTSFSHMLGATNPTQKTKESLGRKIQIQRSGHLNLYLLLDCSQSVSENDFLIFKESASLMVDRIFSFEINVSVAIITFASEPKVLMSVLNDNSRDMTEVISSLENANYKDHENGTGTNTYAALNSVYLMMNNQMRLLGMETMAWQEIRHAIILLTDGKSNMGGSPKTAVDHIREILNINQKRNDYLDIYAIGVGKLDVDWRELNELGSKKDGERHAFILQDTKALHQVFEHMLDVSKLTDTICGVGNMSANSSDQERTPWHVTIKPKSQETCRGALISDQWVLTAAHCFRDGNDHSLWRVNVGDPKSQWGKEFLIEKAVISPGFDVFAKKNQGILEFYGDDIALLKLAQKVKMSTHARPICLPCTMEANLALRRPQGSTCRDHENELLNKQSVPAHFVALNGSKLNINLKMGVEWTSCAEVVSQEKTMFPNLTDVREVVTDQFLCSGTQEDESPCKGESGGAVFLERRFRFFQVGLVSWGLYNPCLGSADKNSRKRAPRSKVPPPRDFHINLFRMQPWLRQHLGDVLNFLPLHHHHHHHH

In assay [4] the target is T4, human C2 S473A (human, UniProt P06681 21-752).
T4 sequence: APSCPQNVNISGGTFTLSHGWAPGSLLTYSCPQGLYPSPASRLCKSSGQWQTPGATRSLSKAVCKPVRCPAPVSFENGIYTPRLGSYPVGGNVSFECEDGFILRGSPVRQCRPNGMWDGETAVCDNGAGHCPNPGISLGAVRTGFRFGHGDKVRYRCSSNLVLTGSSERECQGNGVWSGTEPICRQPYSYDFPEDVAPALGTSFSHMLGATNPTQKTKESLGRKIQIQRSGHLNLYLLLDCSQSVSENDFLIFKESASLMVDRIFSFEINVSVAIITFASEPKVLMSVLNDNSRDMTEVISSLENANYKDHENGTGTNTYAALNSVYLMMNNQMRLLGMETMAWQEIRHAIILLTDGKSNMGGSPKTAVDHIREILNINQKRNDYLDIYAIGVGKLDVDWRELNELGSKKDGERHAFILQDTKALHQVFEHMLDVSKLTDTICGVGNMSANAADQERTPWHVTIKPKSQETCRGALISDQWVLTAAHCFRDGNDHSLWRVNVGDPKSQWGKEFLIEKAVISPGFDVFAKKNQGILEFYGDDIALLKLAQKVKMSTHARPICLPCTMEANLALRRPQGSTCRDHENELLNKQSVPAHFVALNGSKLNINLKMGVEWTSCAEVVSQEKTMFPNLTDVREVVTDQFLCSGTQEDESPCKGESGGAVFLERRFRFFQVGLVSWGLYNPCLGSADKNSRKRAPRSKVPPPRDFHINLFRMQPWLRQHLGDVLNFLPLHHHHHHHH

B1: RF16-214 (antibody, V domains shown)
VH: EVQLLESGGGLVQPGGSLRLSCAASGFTFSWYQMMWVRQAPGKGLEWVSRIYPSGGGTAYADSVKGRFTISRDNSKNTLYLQMNSLRAEDTAVYYCARDAGYGDNWGQGTLVTVSS
VL: QSALTQPPSVSVSPGQTASITCSGDKLGEKYASWYQQKAGQSPVMVIYQDRKRPSGIPERFSGSNSGNTATLTISGTQAMDEADYYCQAWDTRAVVFGGGTKLTVLG
As usually defined, the Kd is a measure of binding affinity in units of concentration. B1: the Kd was found to be 157 nM in assay [1], 41.8 nM in assay [2], 234 nM in assay [3] and 68.7 nM in assay [4].
